Experimental data from PMC11103110.

Key:
[1] = biological target: Lotus japonicus phytoglobin LjGlb3-1, recombinant (Lotus japonicus) (UniProt P0DO64); test: SDS-PAGE with immunoblot (anti-NO2-Tyr and protein-specific antibodies); recombinant protein (20 μM in the methods, 5–10 μM in the legend) incubated with 500 μM SIN-1 (peroxynitrite generator) for 2 h at 30 °C in 50 mM KPi pH 7.4; 15% SDS-PAGE
[2] = biological target: Lotus japonicus phytoglobin LjGlb3-1, recombinant (Lotus japonicus) (UniProt P0DO64); test: SDS-PAGE under non-reducing conditions with Coomassie staining and immunoblot; recombinant protein (20 μM in the methods, 10 μM in the legend) untreated, with 500 μM DTT or with 200–500 μM H2O2, 1 h, 50 mM KPi pH 7.4; 15% SDS-PAGE; DTT made the dimer almost totally disappear, H2O2 caused partial dimerization

“Lotus japonicus phytoglobin LjGlb3-1, recombinant (from UniProt P0DO64 1-168) (natural protein)” was tested, and the stoichiometry N [1] was 2 and the stoichiometry N [2] was 2.
